Laboratory results taken from paper PMC5573408 (2017).
No end group written: not given here. fluorescein = fluorescein, fluorescent label at the C-terminus

Columns and labels:
Cannabinoid receptor 2 [1] = target: T1, Cannabinoid receptor 2 (Homo sapiens, UniProt P34972); assay: radioligand binding [3H]CP55,940, ternary complex allosteric model
Cannabinoid receptor 2 [2] = target: T1, Cannabinoid receptor 2; assay: fluorescent pepcan-F4 displacement on CHO-K1-hCB2 cells
Cannabinoid receptor 2 [3] = target: T1, Cannabinoid receptor 2; assay: fluorescence saturation binding on CHO-K1-hCB2 cells
Cannabinoid receptor 2 [4] = target: T1, Cannabinoid receptor 2; assay: radioligand binding [3H]WIN55,212-2, ternary complex allosteric model

T1 sequence (P34972 whole entry): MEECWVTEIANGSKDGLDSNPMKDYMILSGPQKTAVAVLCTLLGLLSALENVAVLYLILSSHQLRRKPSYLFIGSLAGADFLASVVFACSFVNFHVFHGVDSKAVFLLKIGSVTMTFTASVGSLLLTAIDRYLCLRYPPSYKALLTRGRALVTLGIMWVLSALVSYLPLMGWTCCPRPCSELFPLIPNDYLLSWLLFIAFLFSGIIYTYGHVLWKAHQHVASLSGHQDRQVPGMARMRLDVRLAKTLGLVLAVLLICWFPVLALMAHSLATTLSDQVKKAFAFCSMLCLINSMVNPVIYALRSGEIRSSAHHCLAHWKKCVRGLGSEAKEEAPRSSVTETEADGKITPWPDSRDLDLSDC

Binder: RVDPVNFKLLSH ([3H]CP55,940 present)
- Kd (Cannabinoid receptor 2 [1]): 58 nM

Binder: RVDPVNFKLLSH
- Ki (Cannabinoid receptor 2 [2]): 44 nM

Binder: RVDPVNFKLLSH-fluorescein [Pepcan-F4]
- Kd (Cannabinoid receptor 2 [3]): 122 nM

Binder: RVDPVNFKLLSH ([3H]WIN55,212-2 present)
- Kd (Cannabinoid receptor 2 [4]): 53 nM
